We go through 51 variants from the RNAGym collection of RNA variant scans (doi:10.1101/gr.219683.116).

The chains are these.
B1: mRNA-splicing (parent)
chain: AGUUGCUGCUGGGAGCUCCAGCACAGUGAAAUGGACAGAAGGGCAGAGCAA

Variants of B1 are the subject of this series. Description: exon inclusion enrichment index; higher = more inclusion; WT1 exon 5 minigene, HEK293.
On to AGUUGACGACAGGAGCUCCAGCACAGUGAAAUGGACAGAAGGGCAGAGCAA [C6A U7C C9A U10C G11A], for which the “exon inclusion enrichment index” value was found to be 1.84. With AGUCUCUUUUGGGAGCUCCAGCACAGUGAAAUGGACAGAAGGGCAGAGCAA [U4C G5U G8U C9U] the figure was 0.371. With AGUUCGCGCUGGGAGCUCCAGCACAGUGAAAUGGACAGAAGGGCAGAGCAA [G5C C6G U7C] the figure was 0.636.

AGUUAGGGAUGCAAGCUCCAGCACAGUGAAAUGGACAGAAGGGCAGAGCAA [G5A C6G U7G C9A G12C G13A]: the “exon inclusion enrichment index” value came to 0.00586.

Regarding AGUUCGCGCCGGGAGCUCCAGCACAGUGAAAUGGACAGAAGGCAAGAGCAA [G5C C6G U7C U10C G43C C44A], the “exon inclusion enrichment index” value worked out at 3.83. With AGUUAGGGAUGGGAGCUCCAGCACAGUAAAAUGGACAGAAGGGCAGAGCAA [G5A C6G U7G C9A G28A] the figure was 0.000725; with AGUUCACACAGGGAGCUCCAGCACUUUGAAAUGGACAGAAGGGCAGAGCAA [G5C C6A U7C G8A U10A A25U G26U], 0.111. The result for AGUUAGGGAUGGGAUGUCCAGCACAGUGAAAUGGACAGAAGGGCAGAGCAA [G5A C6G U7G C9A G15U C16G] reads 0.00106; that for AGUUGGGGAAGGGAGCUCCAGCACAGUGAAAUGGACAGAAGGGCAGAGCAA [C6G U7G C9A U10A], 0.0539; that for AGUUAUAUAUGGGAUAUCCAGCACAGUGAAAUGGACAGAAGGGCAGAGCAA [G5A C6U U7A G8U C9A G15U C16A], 0.0179. Consider AGUUACCACCGGGAGCUCCAGCACAGUUCAAUGGACAGAAGGGCAGAGCAA [G5A U7C G8A U10C G28U A29C], for which the “exon inclusion enrichment index” value was found to be 1.47.

Regarding AGUUAGGGAUGGGAGCUCCAGCACAGUGACUUGGACAGAAGGGCAGAGCAA [G5A C6G U7G C9A A30C A31U], the “exon inclusion enrichment index” value came out at 0.00118. With AGUUAGGGAUGGGAGCUCCAGCACAGUGAAUGGGACAGAAGGGCAGAGCAA [G5A C6G U7G C9A A31U U32G] the figure was 0.0027. With AGUUAUAUAUGGGAGCUCCAGCACAGUGACCUGGACAGAAGGGCAGAGCAA [G5A C6U U7A G8U C9A A30C A31C] the figure was 0.126.

In the case of AGUUCGCGCCGGGAGCUCCAGCACAGUGAAAUGGACAGAAGGGCGUAGCAA [G5C C6G U7C U10C A45G G46U], the “exon inclusion enrichment index” value was found to be 3.14. With AGUUAUAUAUGGGAGCUCCAGCACAGUGAAAUGGAUGGAAGGGCAGAGCAA [G5A C6U U7A G8U C9A C36U A37G] the figure was 0.0518; with AGUUAUAUAUGGGAGCUCGCGCACAGUGAAAUGGACAGAAGGGCAGAGCAA [G5A C6U U7A G8U C9A C19G A20C], 0.0894; with AGUUCACACAGGGAGCUCCAGCAAUGUGAAAUGGACAGAAGGGCAGAGCAA [G5C C6A U7C G8A U10A C24A A25U], 0.146. In the case of AGUUCGCGCCGGUGGCUCCAGCACAGUGAAAUGGACAGAAGGGCAGAGCAA [G5C C6G U7C U10C G13U A14G], the “exon inclusion enrichment index” value stood at 1.28. Consider AGUUGCUGCUGGCGGCUCCAGCACAGUGAAAUGGACAGAAGGGCAGAGCAA [G13C A14G], for which the “exon inclusion enrichment index” value was 0.42. With AGUUAUAUAUGGGAGCUCCAGCACAGUGAAAUGGACAGAAAAGCAGAGCAA [G5A C6U U7A G8U C9A G41A G42A] the figure was 0.0506; with AGUUAGGGAUGGGAGCUCCAGCACAGUGAAAUGGACAGAAGGGCAUAGCAA [G5A C6G U7G C9A G46U], 0.000617; with AGUUCUUCUCGGGAGCUCCAGCACAGUGAAAUGGACACCAGGGCAGAGCAA [G5C C6U G8C C9U U10C G38C A39C], 1.84.

For the variant AGUUCUUGUCGGGAGCUCCAGCACAGUGAAAUGGACAGAAGGGCAGAGCAA [G5C C6U C9U U10C], the “exon inclusion enrichment index” value was found to be 1.13. With AGUUGACGACGGGAGCUCCAGCACAGUGAAAUGGCAAGAAGGGCAGAGCAA [C6A U7C C9A U10C A35C C36A] the figure was 2.28; with AGUUACCACCGGGAGCUCCAGCACAGUGAAAUGGACAGAAGGGUGGAGCAA [G5A U7C G8A U10C C44U A45G], 1.53. The result for AGUUACCACCGGGAGCUCCAGCACAGUGAAAUGGACAGAAGGGUUGAGCAA [G5A U7C G8A U10C C44U A45U] reads 1.51.

Take AGUUGCUGCUGGGAGCUCCAUAACAGUGAAAUGGACAGAAGGGCAGAGCAA [G21U C22A]: the “exon inclusion enrichment index” value was 1.05. As for AGUUGACGACGUUAGCUCCAGCACAGUGAAAUGGACAGAAGGGCAGAGCAA [C6A U7C C9A U10C G12U G13U], the “exon inclusion enrichment index” value turned out to be 0.542. With AGUUGAAGAAGGGAGCUCAUGCACAGUGAAAUGGACAGAAGGGCAGAGCAA [C6A U7A C9A U10A C19A A20U] the figure was 0.195. With AGUUCACACAGGGAGCUCCAGCACAGUGAAAUGCUCAGAAGGGCAGAGCAA [G5C C6A U7C G8A U10A G34C A35U] the figure was 0.0152; with AGUUGAAGAAGGGAGCUCCAGCAAAGUGAAAUGGACAGAAGGGCAGAGCAA [C6A U7A C9A U10A C24A], 0.545.

Consider AGACGCUGCUGGGAGCUCCAGCACAGUGAAAUGGACAGAAGGGCAGAGCAA [U3A U4C], for which the “exon inclusion enrichment index” value came to 0.355. With AGUUGAAGAAGGGAGCUCCAGCACAGCUAAAUGGACAGAAGGGCAGAGCAA [C6A U7A C9A U10A U27C G28U] the figure was 0.4; with AGUUAUAUAUGGGAAGUCCAGCACAGUGAAAUGGACAGAAGGGCAGAGCAA [G5A C6U U7A G8U C9A G15A C16G], 0.0191. The result for AGUUAUAUAUGGGAAUUCCAGCACAGUGAAAUGGACAGAAGGGCAGAGCAA [G5A C6U U7A G8U C9A G15A C16U] reads 0.0138; that for AGUUAGGGAUGGGAGCUCCAGCACAGUGAAAUGCACAGAAGGGCAGAGCAA [G5A C6G U7G C9A G34C], 0.000973; that for AGUUGAAGAAGGGAGCUCCAGCACAGUGAAAUGGACAGAAGGGCAGGUCAA [C6A U7A C9A U10A A47G G48U], 0.0862. The result for AGUUCGCGCCGGGAGCUCCAGCACAGUGAAAUGGACAGAAGGGCAGCCCAA [G5C C6G U7C U10C A47C G48C] reads 2.99.

On to AGUUUCUUUUGGGAGCUCCAGCACAGUGAAAUGGACAGAUUGGCAGAGCAA [G5U G8U C9U A40U G41U], for which the “exon inclusion enrichment index” value came out at 0.0547. With AGUUACCACCGGGAGCUCCAGCACAGUGAAAUGGACAGAAGGGCAUGGCAA [G5A U7C G8A U10C G46U A47G] the figure was 1.85. As for AGUUCUUCUCGGGAGCUCCAGCACAGUGAAAUGGACAGAAGGGCUGAGCAA [G5C C6U G8C C9U U10C A45U], the “exon inclusion enrichment index” value came out at 2.45.

As to AGUGGUUCUCGGGAGCUCCAGCACAGUGAAAUGGACAGAAGGGCAGAGCAA [U4G C6U G8C C9U U10C], the “exon inclusion enrichment index” value stood at 0.778.

For AGUUCUUCUCGGGAGCUCCAGCAUUGUGAAAUGGACAGAAGGGCAGAGCAA [G5C C6U G8C C9U U10C C24U A25U], the “exon inclusion enrichment index” value worked out at 1.95. As to AGUUACCACCGGGAGCUCACGCACAGUGAAAUGGACAGAAGGGCAGAGCAA [G5A U7C G8A U10C C19A A20C], the “exon inclusion enrichment index” value was found to be 1.38. The result for AGUUGCUGCUGGGAGCUCCAGCACAGUGAAAUGGACAGAAGGUUAGAGCAA [G43U C44U] reads 0.0355; that for AGUUGAAGAAGGGAGCUCCAGCACUAUGAAAUGGACAGAAGGGCAGAGCAA [C6A U7A C9A U10A A25U G26A], 0.899; that for AGUUCGAUAUGGGAGCUCCAGCACAGUGAAAUGGACAGAAGGGCAGAGCAA [G5C C6G U7A G8U C9A], 1.06.

In the case of AGUUCUUCUCGGGAGCUCCAGCACAGUGAAAUGGACAGACGGGCAGAGCAA [G5C C6U G8C C9U U10C A40C], the “exon inclusion enrichment index” value was 2.94. With AGUACCCACCGGGAGCUCCAGCACAGUGAAAUGGACAGAAGGGCAGAGCAA [U4A G5C U7C G8A U10C], the “exon inclusion enrichment index” value turned out to be 2.34.

Take AGUUAGGGUCGGGAGCUCCAGCACAGUGAAAUGGACAGAAGGGCAGAGCAA [G5A C6G U7G C9U U10C]: the “exon inclusion enrichment index” value was determined as 0.00564.
